Results as given in publication PMC3407115, “Characterization of Danio rerio Mn^2+-Dependent ADP-Ribose/CDP-Alcohol Diphosphatase, the Structural Prototype of the ADPRibase-Mn-Like Protein Family” (PLoS ONE, 2012).
Numbering of substitutions follows the chain as printed. In names and notes the source's numbering stands.

T1: rat ADPRibase-Mn (Rattus norvegicus, UniProt Q5M886)
T1 construct: gene Adprm
T1 sequence (Q5M886 1-337): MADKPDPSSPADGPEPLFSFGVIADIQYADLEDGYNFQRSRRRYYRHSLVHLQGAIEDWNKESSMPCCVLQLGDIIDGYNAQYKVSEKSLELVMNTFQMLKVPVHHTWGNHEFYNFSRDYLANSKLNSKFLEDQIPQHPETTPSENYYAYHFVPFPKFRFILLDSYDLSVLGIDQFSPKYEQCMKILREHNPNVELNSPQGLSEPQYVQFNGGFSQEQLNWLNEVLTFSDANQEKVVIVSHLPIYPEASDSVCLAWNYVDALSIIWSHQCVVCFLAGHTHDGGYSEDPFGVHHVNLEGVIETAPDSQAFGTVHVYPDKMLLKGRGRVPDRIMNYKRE

B1: zebrafish ADPRibase-Mn (Danio rerio; M1S) (protein)
chain: SEDPVFTFGLIADVQYADIEDGENYLRTRRRYYRGSADLLRDAVLQWRRERVQCVVQLGDIIDGHNRRRDASDRALDTVMAELDACSVDVHHVWGNHEFYNFSRPSLLSSRLNSAQRTGTDTGSDLIGDDIYAYEFSPAPNFRFVLLDAYDLSVIGREEESEKHTHSWRILTQHNHNLQDLNLPPVSVGLEQRFVKFNGGFSEQQLQWLDAVLTLSDHKQERVLIFSHLPVHPCAADPICLAWNHEAVLSVLRSHQSVLCFIAGHDHDGGRCTDSSGAQHITLEGVIETPPHSHAFATAYLYEDRMVMKGRGRVEDLTITYS
notes: full-length ORF (BC054642 region 60-1028), N-terminal Met replaced by Ser; 8-His-MBP-TEV fusion expressed in E. coli BL21, tag cut with TEV protease
B2: zebrafish ADPRibase-Mn (Danio rerio; H97A/M1S) (protein)
chain: B1 chain with H97A
notes: as for B1

What was measured:
rat ADPRibase-Mn = biological target: T1, rat ADPRibase-Mn; test: hydrolysis assay; format: biochemical; settings: behaves as with the zebrafish enzyme; no number given
[1] = substrate: N=c1c2ncn3c2ncn1[C@@H]1O[C@H](COP(=O)(O)OP(=O)(O)OC[C@H]2O[C@@H]3[C@H](O)[C@@H]2O)[C@@H](O)[C@H]1O; test: estimated from inhibition of ADP-ribose hydrolysis by cADPR (equation II); format: biochemical, Danio rerio; settings: competitive inhibition assumed, Ki taken as Km; 160 µM cADPR against 80 µM ADP-ribose
Description: estimated from inhibition of ADP-ribose hydrolysis by cADPR (equation II) on zebrafish ADPRibase-Mn

[2] = substrate: Nc1ccn([C@@H]2O[C@H](COP(=O)(O)OP(=O)(O)OC[C@H](O)CO)[C@@H](O)[C@H]2O)c(=O)n1; test: phosphate release coupled to alkaline phosphatase; Michaelis-Menten fit; format: biochemical, Danio rerio; settings: 5 mM MnCl2, 50 mM Tris-HCl pH 7.5
Description: (§1) phosphate release coupled to alkaline phosphatase; Michaelis-Menten fit on zebrafish ADPRibase-Mn

[3] = substrate: Nc1ncnc2c1ncn2[C@@H]1O[C@H](CO)[C@H]2OP(=O)(O)O[C@H]21; test: as above; format: biochemical, Danio rerio; settings: 5 mM MnCl2, 50 mM Tris-HCl pH 7.5, total activity (P-O2′ plus P-O3′ hydrolysis)
Description: as §1

[4] = substrate: C[N+](C)(C)CCOP(=O)(O)OP(=O)([O-])OC[C@H]1O[C@@H](n2ccc(N)nc2=O)[C@H](O)[C@@H]1O; test: as above; format: biochemical, Danio rerio; settings: 5 mM MnCl2, 50 mM Tris-HCl pH 7.5
Description: as §1

[5] = substrate: NCCOP(=O)(O)OP(=O)(O)OC[C@H]1O[C@@H](n2ccc(N)nc2=O)[C@H](O)[C@@H]1O; test: as above; format: biochemical, Danio rerio; settings: 5 mM MnCl2, 50 mM Tris-HCl pH 7.5
Description: as §1

[6] = substrate: Nc1ncnc2c1ncn2[C@@H]1O[C@H](COP(=O)(O)OP(=O)(O)O)[C@@H](O)[C@H]1O; test: as above; format: biochemical, Danio rerio; settings: 5 mM MnCl2, 50 mM Tris-HCl pH 7.5
Description: as §1

Row | Molecule | hydrolysis assay (rat ADPRibase-Mn) | Km [1] [mM] | kcat [1] [s⁻¹] | kcat/Km [1] [M⁻¹ s⁻¹] | Km [2] [mM] | kcat [2] [s⁻¹] | kcat/Km [2] [M⁻¹ s⁻¹] | Km [3] [mM] | kcat [3] [s⁻¹] | kcat/Km [3] [M⁻¹ s⁻¹] | Km [4] [mM] | kcat [4] [s⁻¹] | kcat/Km [4] [M⁻¹ s⁻¹] | Km [5] [mM] | kcat [5] [s⁻¹] | kcat/Km [5] [M⁻¹ s⁻¹] | Km [6] [mM] | kcat [6] [s⁻¹] | kcat/Km [6] [M⁻¹ s⁻¹]
1 | Nc1ncnc2c1ncn2[C@@H]1O[C@H](CO)[C@H]2OP(=O)(O)O[C@H]21 [2′,3′-cAMP] | we did it now and found them to behave as with the zebrafish enzyme |  |  |  |  |  |  |  |  |  |  |  |  |  |  |  |  |  | 
2 | B1 |  | 0.19 ± 0.025 | 0.005 | 28 ± 3 | 2 ± 1.4 | 95.6 | 48000 ± 700 | 0.76 ± 0.05 | 16.9 | 22000 ± 3000 | 12 ± 3 | 67.2 | 5600 ± 800 | 3.9 ± 1.3 | 125 | 32000 ± 300 | 2.65 ± 1.3 | 1.8 | 660 ± 70
3 | B2 |  |  |  |  | 6.3 ± 0.9 | 0.8 | 120 ± 30 | 1.7 ± 0.24 | 29.7 | 18000 ± 1000 | 43 ± 8 | 0.8 | 20 ± 5 | 31 ± 0.8 | 2.1 | 70 ± 20 | 19 ± 0.7 | 0.2 | 11 ± 5
